# Data published in paper PMC8276696 (2021).
# Biological target: wild-type monomeric SARS-CoV-2 S receptor-binding domain (RBD) (SARS-CoV-2 (Wuhan-Hu-1), UniProt P0DTC2)
# Experiment: BLI
binder,measurement,value
"CV30 IgG (antibody, V domains shown) VH: QVQLVESGGGLIQPGGSLRLSCAASGVIVSSNYMSWVRQAPGKGLEWVSVIYSGGSTYYADSVKGRFTISRDNSKNTLYLQMNSLRAEDTAVYYCARDLDVSGGMDVWGQGTTVTVSS VL: not shown",Kd,8.8 nM
